In article PMC3477848 (Biochemistry, 2012):
Like-named read-outs stand apart in the source and are kept apart here.

B1: Dpo4, wild-type untagged, Y-family lesion bypass (repair) DNA polymerase of Sulfolobus solfataricus (enzyme)
chain: MIVLFVDFDYFYAQVEEVLNPSLKGKPVVVCVFSGRFEDSGAVATANYEARKFGVKAGIPIVEAKKILPNAVYLPMRKEVYQQVSSRIMNLLREYSEKIEIASIDEAYLDISDKVRDYREAYNLGLEIKNKILEKEKITVTVGISKNKVFAKIAADMAKPNGIKVIDDEEVKRLIRELDIADVPGIGNITAEKLKKLGINKLVDTLSIEFDKLKGMIGEAKAKYLISLARDEYNEPIRTRVRKSIGRIVTMKRNSRNLEEIKPYLFRAIEESYYKLDKRIPKAIHVVAVTEDLDIVSRGRTFPHGISKETAYSESVKLLQKILEEDERKIRRIGVRFSKFIEAIGLDKFFDT
B2: 37-nt hairpin primer-template, unlabeled (structured_DNA)
DNA: TTTTTTTTTTCCCGGGCCGGCGTTTCGCCGGCCCGGG

How the values were obtained:
cross-linking = biological target: the molecule itself; test: cross-linking
[1] = biological target: T1, Dpo4 (SsoDpo4, Y-family DNA polymerase) (Sulfolobus solfataricus, UniProt Q97W02 1-352); test: ITC
T1 sequence: B1 chain

[2] = biological target: T1, Dpo4 (SsoDpo4, Y-family DNA polymerase); test: ITC; remark: listed apart in the source

Binder | stoichiometry N (cross-linking) | Ka [1] [M⁻¹] | Ka [2] [M⁻¹]
B1 | 2 |  | 
B2 |  | 652000 | 2.23e+06
